Results on 19 molecules are retold here after patent publication US11499162B2, “Plants having increased tolerance to herbicides” (BASF SE, priority 2016, dated 2022).

The chains are these.
B1: Q71NL92AY93FD128G: mutated TriA variant of SEQ ID NO: 2 (protein)
chain: MQTLSIQHGTLVTMDQYRRVLGDSWVHVQDGRIVALGVHAESVPPPADRVIDARGKVVLPGFINAHTHVNNILLRGGPSHGRQLYDWLFNVAFPGQKAMRPEDVAVAVRLYCAEAVRSGITTINDNAGSAIYPGNIEAAMAVYGEVGVRVVYARMFFDRMDGRIQGYVDALKARSPQVELCSIMEETAVAKDRITALSDQYHGTAGGRISVWPAPAITPAVTVEGMRWAQAFARDRAVMWTLHMAESDHDERLHWMSPAEYMECYGLLDERLQVAHCVYFDRKDVRLLHRHNVKVASQVVSNAYLGSGVAPVPEMVERGMAVGIGTDDGNCNDSVNMIGDMKFMAHIHRAVHRDADVLTPEKILEMATIDGARSLGMDHEIGSIETGKRADLILLDLRHPQTTPHHHLAATIVFQAYGNEVDTVLIDGNVVMENRRLSFLPPERELAFLEEAQSRATAILQRANMVANPAWRSL
modifications: Pseudomonas
B2: F89A: mutated TriA variant of SEQ ID NO: 2 (protein)
chain: B1 chain with N71Q, F89A, A92L, F93Y, G128D
modifications: Pseudomonas
B3: Q71NL92AM155TF157V: mutated TriA variant of SEQ ID NO: 2 (protein)
chain: B1 chain with F93Y, G128D, M155T, F157V
modifications: Pseudomonas
B4: Q71NL92AM155VF157L: mutated TriA variant of SEQ ID NO: 2 (protein)
chain: B1 chain with F93Y, G128D, M155V, F157L
modifications: Pseudomonas
B5: N70VQ71V: mutated TriA variant of SEQ ID NO: 2 (protein)
chain: B1 chain with N70V, N71V, A92L, F93Y, G128D
modifications: Pseudomonas
B6: L92AY93A: mutated TriA variant of SEQ ID NO: 2 (protein)
chain: B1 chain with N71Q, F93A, G128D
modifications: Pseudomonas
B7: Y93A: mutated TriA variant of SEQ ID NO: 2 (protein)
chain: B1 chain with N71Q, A92L, F93A, G128D
modifications: Pseudomonas
B8: Q71C: mutated TriA variant of SEQ ID NO: 2 (protein)
chain: B1 chain with N71C, A92L, F93Y, G128D
modifications: Pseudomonas
B9: L92AY93L: mutated TriA variant of SEQ ID NO: 2 (protein)
chain: B1 chain with N71Q, F93L, G128D
modifications: Pseudomonas
B10: Q71NL92AM155TF157L: mutated TriA variant of SEQ ID NO: 2 (protein)
chain: B1 chain with F93Y, G128D, M155T, F157L
modifications: Pseudomonas
B11: L92AF89A: mutated TriA variant of SEQ ID NO: 2 (protein)
chain: B1 chain with N71Q, F89A, F93Y, G128D
modifications: Pseudomonas
B12: Q71NL92AY93FD128GQ96T: mutated TriA variant of SEQ ID NO: 2 (protein)
chain: B1 chain with Q96T
modifications: Pseudomonas
B13: M160G: mutated TriA variant of SEQ ID NO: 2 (protein)
chain: B1 chain with N71Q, A92L, F93Y, G128D, M160G
modifications: Pseudomonas
B14: Q71NL92AD328G: mutated TriA variant of SEQ ID NO: 2 (protein)
chain: B1 chain with F93Y, G128D, D328G
modifications: Pseudomonas
B15: Y93F: mutated TriA variant of SEQ ID NO: 2 (protein)
chain: B1 chain with N71Q, A92L, G128D
modifications: Pseudomonas
B16: Y93L: mutated TriA variant of SEQ ID NO: 2 (protein)
chain: B1 chain with N71Q, A92L, F93L, G128D
modifications: Pseudomonas
B17: L92AY93F: mutated TriA variant of SEQ ID NO: 2 (protein)
chain: B1 chain with N71Q, G128D
modifications: Pseudomonas
B18: Y93V: mutated TriA variant of SEQ ID NO: 2 (protein)
chain: B1 chain with N71Q, A92L, F93V, G128D
modifications: Pseudomonas
B19: L92AF89AY93A: mutated TriA variant of SEQ ID NO: 2 (protein)
chain: B1 chain with N71Q, F89A, F93A, G128D
modifications: Pseudomonas

Numbering of substitutions follows the chain as printed. In names and notes the source's numbering stands.

The data set is classed as biochemical. The settings on record: pH 7.2. The gist of the method:
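Expression: BL21(DE3) Gold, pET24d N-His, pGro7, 0.1 mM IPTG, 25° C, 20 h. Reaction: 25 mM Na phosphate pH 7.2, substrate 1 nM to 10 nM, 30° C. Analysis: UPLC-HR-MS; % degradation vs empty vector.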
Regarding B1, the “Degradation in % of 6-cyclopentyl-N4-(2,3,4,5,6-pentafluorophenyl)-1,3,5-triazine-2,4-diamine” value turned out to be 74% and the “Degradation in % of Melamine” value is given as 0%.
With B2, the “Degradation in % of 6-cyclopentyl-N4-(2,3,4,5,6-pentafluorophenyl)-1,3,5-triazine-2,4-diamine” value was found to be 26% and the “Degradation in % of Melamine” value is reported as 100%.
For B3, the “Degradation in % of 6-cyclopentyl-N4-(2,3,4,5,6-pentafluorophenyl)-1,3,5-triazine-2,4-diamine” value is given as 99% and the “Degradation in % of Melamine” value is 52%.
On the same counts, the results for B4 are 100% and 67%.
On the same counts, the results for B5 are 0% and 0%.
On the same counts, the results for B6 are 56% and 1%.
For B7, the “Degradation in % of 6-cyclopentyl-N4-(2,3,4,5,6-pentafluorophenyl)-1,3,5-triazine-2,4-diamine” value is listed as 66% and the “Degradation in % of Melamine” value stood at 100%.
On the same counts, the results for B8 are 0% and 5%.
On the same counts, the results for B9 are 99% and 100%.
In the case of B10, the “Degradation in % of 6-cyclopentyl-N4-(2,3,4,5,6-pentafluorophenyl)-1,3,5-triazine-2,4-diamine” value came out at 98% and the “Degradation in % of Melamine” value was 44%.
On the same counts, the results for B11 are 100% and 100%.
On the same counts, the results for B12 are 99% and 1%.
On the same counts, the results for B13 are 29% and 100%.
B14: the “Degradation in % of 6-cyclopentyl-N4-(2,3,4,5,6-pentafluorophenyl)-1,3,5-triazine-2,4-diamine” value was 6% and the “Degradation in % of Melamine” value turned out to be 0%.
B15: the “Degradation in % of 6-cyclopentyl-N4-(2,3,4,5,6-pentafluorophenyl)-1,3,5-triazine-2,4-diamine” value amounted to 33% and the “Degradation in % of Melamine” value worked out at 98%.
For B16, the “Degradation in % of 6-cyclopentyl-N4-(2,3,4,5,6-pentafluorophenyl)-1,3,5-triazine-2,4-diamine” value came to 82% and the “Degradation in % of Melamine” value came to 100%.
The matching figures for B17: 100% and 100%.
The matching figures for B18: 98% and 100%.
On the same counts, the results for B19 are 100% and 63%.
